Where a chain is given by its changes, count along the chain named. Names may count otherwise. Where two headings read alike, the source gives them in different places. Blank lines part the entries; values can stand above or below the binder they belong to.
Experiments:
Assay in all cases: SPR
[1] = target: T1, CD47 extracellular domain (UniProt Q08722, biotin (enzymatically biotinylated; stated for the SPR experiment))
[2] = target: T1, CD47 extracellular domain; remark: listed apart in the source
[3] = target: T1, CD47 extracellular domain; remark: listed apart in the source
[4] = target: T1, CD47 extracellular domain; remark: listed apart in the source
[5] = target: T1, CD47 extracellular domain; remark: listed apart in the source
[6] = target: T1, CD47 extracellular domain; remark: listed apart in the source

T1 sequence (Q08722 19-141): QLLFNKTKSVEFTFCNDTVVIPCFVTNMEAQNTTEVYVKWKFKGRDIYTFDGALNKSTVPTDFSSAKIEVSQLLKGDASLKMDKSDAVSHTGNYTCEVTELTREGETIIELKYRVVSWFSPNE

koff [1]: 0.000392 s⁻¹
B1: Nb02 mutant M4 (VHH)
VHH: EVQLQASGGGLVQAGGSLRLSCAASGFTNERSQNMGWFRQAPGKEREGVACIQSRVVECWYADSVKGRFTISRDNAKNTVYLQMNSLKPEDTAVYYCAAPRAITGHSAVGEHMCDYWGQGTQVTVSS

koff [2]: 4.04e-05 s⁻¹
B2: Nb02 quadruple mutant M7 (G107W, T108H, S109V, F110A) (VHH)
VHH: B1 VHH with Q53S, G105W, S107V

koff [3]: 0.000126 s⁻¹
B3: Nb02 mutant M1 (VHH)
VHH: B1 VHH with G105W, A108F

koff [4]: 0.000312 s⁻¹
B4: Nb02 mutant M3 (VHH)
VHH: B1 VHH with S107V, A108F

koff [5]: 2.73e-05 s⁻¹
B5: Nb02 mutant M2 (VHH)
VHH: B1 VHH with G105W, H106T, S107V, A108F

koff [6]: 0.000117 s⁻¹
B6: Nb02 mutant M6 (VHH)
VHH: B1 VHH with G105W, S107V, A108F

From PMC6747709 (2019)
